Experiments:
CD123_BC = assay: ELISA; FIG. 30B
CD123_AC = assay: ELISA; FIG. 30A
CD123_BD = assay: ELISA; FIG. 30A
CD123_CA = assay: ELISA; FIG. 30A
CD123_DA = assay: ELISA; FIG. 30A
CD123_AD = assay: ELISA; FIG. 30A
immobilized CD123 [1] = target: T1, immobilized CD123 (UniProt P26951 19-305); assay: ELISA; FIG. 30B
T1 chain: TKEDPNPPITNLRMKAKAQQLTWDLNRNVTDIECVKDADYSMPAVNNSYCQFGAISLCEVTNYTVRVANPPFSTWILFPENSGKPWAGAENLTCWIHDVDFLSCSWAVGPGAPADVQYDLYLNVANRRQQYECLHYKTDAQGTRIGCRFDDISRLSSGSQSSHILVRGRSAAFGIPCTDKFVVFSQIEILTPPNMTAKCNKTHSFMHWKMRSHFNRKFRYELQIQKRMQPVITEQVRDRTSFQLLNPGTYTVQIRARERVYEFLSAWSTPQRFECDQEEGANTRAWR

immobilized CD123 [2] = target: T1, immobilized CD123; assay: ELISA; FIG. 30A

Binder | Kd (CD123_BC) | Kd (CD123_AC) | Kd (CD123_BD) | Kd (CD123_CA) | Kd (CD123_DA) | Kd (CD123_AD) | Kd (immobilized CD123 [1]) | Kd (immobilized CD123 [2])
CD123 (receptor) TKEDPNPPITNLRMKAKAQQLTWDLNRNVTDIECVKDADYSMPAVNNSYCQFGAISLCEVTNYTVRVANPPFSTWILFPENSGKPWAGAENLTCWIHDVDFLSCSWAVGPGAPADVQYDLYLNVANRRQQYECLHYKTDAQGTRIGCRFDDISRLSSGSQSSHILVRGRSAAFGIPCTDKFVVFSQIEILTPPNMTAKCNKTHSFMHWKMRSHFNRKFRYELQIQKRMQPVITEQVRDRTSFQLLNPGTYTVQIRARERVYEFLSAWSTPQRFECDQEEGANTRAWR | 3.25 nM | 1.83 nM | 1.12 nM | 10.2 nM | 2.8 nM | 1.77 nM |  | 
parent mouse scFv (anti-CD123, clone 32716) (scFv) scFv: DIVLTQSPASLAVSLGQRATISCRASESVDNYGNTFMHWYQQKPGQPPKLLIYRASNLESGIPARFSGSGSRTDFTLTINPVEADDVATYYCQQSNEDPPTFGAGTKLELKGGGGSGGGGSSGGGSQIQLVQSGPELKKPGETVKISCKASGYIFTNYGMNWVKQAPGKSFKWMGWINTYTGESTYSADFKGRFAFSLETSASTAYLHINDLKNEDTATYFCARSGGYDPMDYWGQGTSVTVSS |  |  |  |  |  |  | 1.04 nM | 2.56 nM

Reference: patent publication US20170183415A1 (published 2017)
